Data as given in article PMC2690590, “Functional recombinant MHC class II molecules and high-throughput peptide-binding assays” (Immunome Research, 2009).

Columns and labels:
DR1 (DRA*0101/DRB1*0101) [1] = molecular target: T1, DR1 (DRA*0101/DRB1*0101) (Homo sapiens, UniProt P01903+P01911, A100R/D57E/F55L/F60I/F76Y/I96L/L162R/M171V/P40L/Q125E/R42F/V115G/Y59C); assay: Competitive peptide-HLA-DR1 binding assay, radioactive spun column; details: competition with 125I labelled (Y)HA306–318, spun column assay
DR1 (DRA*0101/DRB1*0101) [2] = molecular target: T1, DR1 (DRA*0101/DRB1*0101); assay: Scintillation proximity assay (SPA), competitive, DR1; assay type: binding; details: 30 nM DR1 α and β chain; 2 nM 125I labeled YHA306-318; refolding buffer pH 8; 24 h 18°C; streptavidin SPA beads

B1: Invariant Chain: a recombinant version of the extracellular part of human invariant chain (positions 73–208) (protein)
chain: QQQGRLDKLTVTSQNLQLENLRMKLPKPPKPVSKMRMATPLLMQALPMGALPQGPMQNATKYGNMTEDHVMHLLQNADPLKVYPPLKGSFPENLRHLKNTMETIDWKVFESWMHHWLLFEMSRHSLEQKPTDAPPK
- binder to DR1 (in words) (DR1 (DRA*0101/DRB1*0101) [1]): good binders
- binder to DR1 (in words), SPA (DR1 (DRA*0101/DRB1*0101) [2]): good binders
